Measurements taken from PMC9177848.

biological target: LgBiT-mini-Gs fusion protein; assay: NanoBiT mini-Gαs recruitment assay; conditions: agonist fenoldopam; three independent experiments; parent: est. 7.2; read off a plot

How did the other: pEC50 turn out when “D1R-SmBiT fusion protein (WT) (from UniProt P21728) F288A” was run?
Its other: pEC50 is 6.

How did the other: pEC50 turn out when “D1R-SmBiT fusion protein (WT) (from UniProt P21728) F289A” was run?
The other: pEC50 was 6.1.

“D1R-SmBiT fusion protein (WT) (from UniProt P21728) K81V” was tested. Which other: pEC50 did it give?
The other: pEC50 was 6.

“D1R-SmBiT fusion protein (WT) (from UniProt P21728) L190A” was tested. Which other: pEC50 did it give?
The other: pEC50 was 5.

Which other: pEC50 does the source give for “D1R-SmBiT fusion protein (WT) (from UniProt P21728) N292L” here?
The other: pEC50 was 5.4.

With “D1R-SmBiT fusion protein (WT) (from UniProt P21728) S198G” as the substance, how does the other: pEC50 read?
Its other: pEC50 is 5.1.

“D1R-SmBiT fusion protein (WT) (from UniProt P21728) S202A” was tested. Which other: pEC50 did it give?
Its other: pEC50 is 6.6.

With “D1R-SmBiT fusion protein (WT) (from UniProt P21728) W321F” as the substance, how does the other: pEC50 read?
The other: pEC50 was 6.5.

biological target: smBiT-β-arrestin (an N-terminal smBiT) (UniProt P32121); assay: NanoBiT β-arrestin recruitment assay; conditions: highest fenoldopam concentration shown, log[Fenoldopam] M about -4.3; parent: est. 2.7; read off a plot

“D1R-LgBit (WT) (from UniProt P21728) K81V” was tested. Which response did it give?
Its response is 1.2 fold change.
